Literature values in publication PMC10601247.

Key:
[1] = biological target: flotillin-1 (Homo sapiens) (UniProt O75955); assay: SPR
[2] = biological target: flotillin-2 (Homo sapiens) (UniProt Q14254); assay: SPR
UniProt Q14254, sequence (Q14254 2-428): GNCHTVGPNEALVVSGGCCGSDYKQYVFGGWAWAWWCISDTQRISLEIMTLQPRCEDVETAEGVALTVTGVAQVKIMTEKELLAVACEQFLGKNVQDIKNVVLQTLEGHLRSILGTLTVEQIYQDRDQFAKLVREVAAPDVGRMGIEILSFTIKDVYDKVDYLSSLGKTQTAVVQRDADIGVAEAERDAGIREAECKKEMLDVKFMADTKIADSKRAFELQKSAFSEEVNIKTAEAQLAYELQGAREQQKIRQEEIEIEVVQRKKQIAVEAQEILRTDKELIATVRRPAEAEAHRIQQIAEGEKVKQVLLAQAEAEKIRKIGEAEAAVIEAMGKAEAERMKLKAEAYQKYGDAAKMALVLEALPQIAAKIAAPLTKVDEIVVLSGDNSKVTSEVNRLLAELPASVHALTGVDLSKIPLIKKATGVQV

UniProt O75955, sequence (O75955 whole entry): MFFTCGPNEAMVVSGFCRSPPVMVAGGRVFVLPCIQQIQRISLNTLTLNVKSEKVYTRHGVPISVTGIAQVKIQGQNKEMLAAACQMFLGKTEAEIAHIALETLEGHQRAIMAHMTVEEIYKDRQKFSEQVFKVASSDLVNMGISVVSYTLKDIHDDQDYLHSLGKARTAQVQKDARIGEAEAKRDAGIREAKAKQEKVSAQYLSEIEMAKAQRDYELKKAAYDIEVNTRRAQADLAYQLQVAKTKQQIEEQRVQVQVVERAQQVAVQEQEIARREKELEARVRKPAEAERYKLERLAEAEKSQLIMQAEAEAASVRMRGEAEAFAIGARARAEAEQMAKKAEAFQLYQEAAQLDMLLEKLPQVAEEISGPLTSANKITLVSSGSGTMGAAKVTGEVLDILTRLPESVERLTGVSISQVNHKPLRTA

MPP1 (from UniProt Q00013)
Kd [1]: 23 nM
Kd [2]: 31 nM
